In publication doi:10.1101/2020.12.08.416958:

Biological target: L-lactate oxidase (UniProt Q44467)
Experiment: ITC

Chain of UniProt Q44467 (Q44467 whole entry): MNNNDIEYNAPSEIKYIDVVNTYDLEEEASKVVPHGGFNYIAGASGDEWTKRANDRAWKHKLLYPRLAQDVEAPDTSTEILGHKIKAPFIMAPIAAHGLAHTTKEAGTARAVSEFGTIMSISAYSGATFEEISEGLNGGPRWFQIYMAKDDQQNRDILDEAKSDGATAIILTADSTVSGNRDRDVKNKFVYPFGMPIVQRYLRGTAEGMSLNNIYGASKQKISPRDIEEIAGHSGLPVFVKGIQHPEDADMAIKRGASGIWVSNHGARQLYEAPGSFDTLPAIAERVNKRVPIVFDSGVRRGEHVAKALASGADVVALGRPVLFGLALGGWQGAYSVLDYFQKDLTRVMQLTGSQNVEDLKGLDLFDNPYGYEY

maximum enthalpy: 0.7 kcal/mol
Substance: Poly-L-lysine hydrobromide (molecular weight 4,000-15,000 Da) (peptide)
